These results are taken from patent publication US20160208018A1 (JUNO THERAPEUTICS, published 2016).

Assay [1] deals with T1, Human ROR1 (receptor tyrosine kinase-like orphan receptor 1) (human, UniProt Q01973 30-937).
T1 construct: also called hROR1; K562/ROR1
The assay can be described thus: flow cytometry on ROR1-expressing K562 and CHOK1 cells, mean (n = 20).

Assay [2] concerns the target T1, Human ROR1 (receptor tyrosine …). The assay can be described thus: flow cytometry self-competition, competitor R12 scFv on ROR1-expressing cells, mean (n = 17). On the procedure: (§1) Assays also were performed to assess competition of the clones with the reference antibody (R12 scFv), for binding to ROR1-expressing cells. VH clones were titrated against 2 nM Myc-R12 on ROR1/K562 cells and competition assessed with an anti-Myc-Alexa647 secondary antibody, and the half maximal inhibitory concentration (IC₅₀) determined for respective clones.
(§2) Assays also were performed to assess competition (measured as half maximal inhibitory concentration (IC₅₀)) of the clones with the R12 scFv reference antibody for binding to ROR1-expressing cells, as described in Example 1. Percent (%) max ROR1 and % max competition, as compared to the R12 scFv reference antibody, were determined as described in Example 1.

For assay [3] the target is unchanged. Briefly: flow cytometry self-competition, competitor 2 nM Myc-R12 scFv on ROR1/K562 cells, mean (n = 17). Here is the method:
as §1

Assay [4] shares this target. The assay can be described thus: flow cytometry on ROR1-expressing K562 and CHOK1 cells, mean (n = 20). The source holds these as a separate data set. (In general: In flow cytometry, cells or beads pass a laser one at a time.)
A further assay concerns the target T2, Mouse ROR1 (mouse, UniProt Q9Z139 30-937).
T2 construct: also called mROR1; K562/mouse ROR1
Briefly: inferred from IFN-gamma release of CAR-expressing CD8+ T cells co-cultured with K562/mouse ROR1 cells. Here is the method:
Cytokine release was assessed following incubation of the CAR-expressing cells with either K562/human ROR1 (hROR1) or K562/mouse ROR1 (mROR1) antigen-expressing cells. Transduced CD8+ T cells were co-cultured with antigen-expressing cells at a single effector to target (E:T). The co-cultured cells were incubated for about 24 hours, and then supernatants were collected for measurement of IFN-γ using a cytokine immunoassay.

The target in assay [5] is T1, Human ROR1 (receptor tyrosine …). Briefly: flow cytometry competition, competitor R12 scFv on ROR1-expressing cells, mean (n = 3). Here is the method: as §1, §2
The target is the same in assay [6]. Briefly: flow cytometry on ROR1-expressing K562 and CHOK1 cells, mean (n = 2).
Assay [7] has the same target. Briefly: competition with R12 scFv on ROR1-expressing cells; predicted plateau relative to R12 scFv = 100%. Here is the method:
(§3) Additionally, percent (%) maximum (max) binding to ROR1-expressing cells and % max competition with the reference antibody (R12 scFv) were calculated. Percent max binding and competition values were calculated based on predicted plateaus (measured by Prism® using four parameter non-linear regression), relative to values for R12 scFv binding and inhibition, respectively, assigned as 100% in each study.
as §2

For assay [8] the target is unchanged. The assay can be described thus: flow cytometry on ROR1-expressing cells; predicted plateau relative to R12 scFv = 100%. Here is the method: as §3, §2

T1 sequence (Q01973 30-937): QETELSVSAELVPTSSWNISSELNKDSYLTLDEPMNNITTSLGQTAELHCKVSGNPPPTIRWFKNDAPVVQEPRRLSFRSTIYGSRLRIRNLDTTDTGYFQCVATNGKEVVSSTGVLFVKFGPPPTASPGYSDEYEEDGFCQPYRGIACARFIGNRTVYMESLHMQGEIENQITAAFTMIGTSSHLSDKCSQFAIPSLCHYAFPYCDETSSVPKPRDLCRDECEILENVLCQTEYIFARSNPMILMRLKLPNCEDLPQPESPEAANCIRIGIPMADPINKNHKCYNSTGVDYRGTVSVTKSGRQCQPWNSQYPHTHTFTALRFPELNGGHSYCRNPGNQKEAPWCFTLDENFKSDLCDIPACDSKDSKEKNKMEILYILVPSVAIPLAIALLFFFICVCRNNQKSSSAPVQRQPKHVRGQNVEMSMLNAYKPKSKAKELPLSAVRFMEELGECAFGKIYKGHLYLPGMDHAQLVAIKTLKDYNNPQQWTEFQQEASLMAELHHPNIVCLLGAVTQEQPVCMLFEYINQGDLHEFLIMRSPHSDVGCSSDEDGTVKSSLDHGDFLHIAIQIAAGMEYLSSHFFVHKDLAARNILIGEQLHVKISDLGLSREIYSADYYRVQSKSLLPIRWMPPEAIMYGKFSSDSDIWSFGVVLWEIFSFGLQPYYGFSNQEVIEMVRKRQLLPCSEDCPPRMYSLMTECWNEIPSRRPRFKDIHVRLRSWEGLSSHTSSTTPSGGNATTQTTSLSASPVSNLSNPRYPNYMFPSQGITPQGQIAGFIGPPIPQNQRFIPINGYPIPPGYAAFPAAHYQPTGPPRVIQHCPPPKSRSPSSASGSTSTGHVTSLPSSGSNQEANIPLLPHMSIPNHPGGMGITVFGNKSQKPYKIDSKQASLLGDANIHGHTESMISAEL
T2 sequence (Q9Z139 30-937): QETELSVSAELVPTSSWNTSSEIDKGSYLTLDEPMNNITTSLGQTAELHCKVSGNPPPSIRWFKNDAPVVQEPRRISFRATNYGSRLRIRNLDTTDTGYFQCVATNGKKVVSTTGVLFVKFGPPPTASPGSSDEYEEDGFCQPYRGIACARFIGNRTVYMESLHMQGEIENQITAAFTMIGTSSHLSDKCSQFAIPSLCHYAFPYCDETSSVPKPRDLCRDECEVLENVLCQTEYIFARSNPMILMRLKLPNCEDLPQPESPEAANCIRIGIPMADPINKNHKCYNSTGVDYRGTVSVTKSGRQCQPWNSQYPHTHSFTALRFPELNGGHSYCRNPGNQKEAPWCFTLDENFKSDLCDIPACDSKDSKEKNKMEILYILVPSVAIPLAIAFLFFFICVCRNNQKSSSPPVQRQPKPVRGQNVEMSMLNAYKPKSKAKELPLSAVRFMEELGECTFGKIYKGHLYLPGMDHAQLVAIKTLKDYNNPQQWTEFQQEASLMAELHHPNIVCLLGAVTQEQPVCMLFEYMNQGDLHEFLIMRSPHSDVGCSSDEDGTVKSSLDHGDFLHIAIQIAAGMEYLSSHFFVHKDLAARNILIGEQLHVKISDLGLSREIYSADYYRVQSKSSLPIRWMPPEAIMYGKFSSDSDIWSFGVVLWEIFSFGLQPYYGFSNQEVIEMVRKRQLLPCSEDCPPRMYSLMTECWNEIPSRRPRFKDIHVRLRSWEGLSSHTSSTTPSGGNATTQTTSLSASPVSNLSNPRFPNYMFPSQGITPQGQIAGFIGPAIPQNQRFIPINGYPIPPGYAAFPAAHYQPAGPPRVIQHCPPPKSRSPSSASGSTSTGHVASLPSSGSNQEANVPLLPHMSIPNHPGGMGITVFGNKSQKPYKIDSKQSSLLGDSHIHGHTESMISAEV

B1: R12 scFv reference antibody (scFv)
scFv: QEQLVESGGRLVTPGGSLTLSCKASGFDFSAYYMSWVRQAPGKGLEWIATIYPSSGKTYYATWVNGRFTISSDNAQNTVDLQMNSLTAADRATYFCARDSYADDGALFNIWGPGTLVTISSGGGGSGGGGSGGGGSELVLTQSPSVSAALGSPAKITCTLSSAHKTDTIDWYQQLQGEAPRYLMQVQSDGSYTKRPGVPDRFSGSSSGADRYLIIPSVQADDEADYYCGADYIGGYVFGGGTQLTVTG
notes: also called Myc-R12; rabbit anti-ROR1 antibody
What is called EC50 is the concentration that produces a half-maximal response. The term IC50 denotes the point on the concentration scale where inhibition reaches its midpoint. Read a low IC50 as higher potency. As for B1, the EC50 in assay [1] and in assay [4] was 0.8 nM in each case. Moreover, the IC50 in [2] and in [3] was 3.3 nM in each case.

B2: CAR containing the rabbit anti-ROR1 (R12) scFv (VH-VL) (other)
chain: B1 scFv
notes: Control chimeric antigen receptor expressed on primary human CD8+ T cells; tEGFR marker is split off by T2A; also called R12 scFv CAR; not shown: Ig-derived hinge only spacer, human CD28-derived transmembrane domain, human 4-1BB-derived intracellular signaling domai
Consider B2, for which the binding result with Mouse ROR1 was “no binding”.

B3: Clone 83 scFv (scFv)
scFv: QVQLVQSGAEVKKPGASVKVSCKASGYTFTSYYMHWVRQAPGQGLEWMGIINPSGGSTSYAQKFQGRVTMTRDTSTSTVYMELSSLRSEDTAVYYCARDSSYDAFDIWGQGTMVTVSSGGGGSGGGGSGGGGSAIQLTQSPSTLSASVGDRVTITCQASQDISNYLNWYQQKPGKAPKLLINDASYLETGVPSRFSGSGSGTDFTLTISSLQPEDIATYYCQQYESLPYTFGQGTKLEIK
Consider B3, for which, in [5], the 50% inhibitory concentration (IC50) stood at 11.1 nM. The response in assay [6] was half-maximal at 2.5 nM (EC50). For the same molecule, the “% Max Competition” value in assay [7] was 103%. Also, the “% Max Binding” value in assay [8] is 70%.
